Key:
[1] = target: human fibroblast activation protein (FAP) on FAP-expressing human WI-38 fibroblasts (human); experiment: competition FACS, WI-38 cells, vs Cy5-labeled compound; A: pIC50 >8.0
[2] = target: T1, Recombinant human FAP (R&D systems, #3715-SE) (human)
T1 sequence: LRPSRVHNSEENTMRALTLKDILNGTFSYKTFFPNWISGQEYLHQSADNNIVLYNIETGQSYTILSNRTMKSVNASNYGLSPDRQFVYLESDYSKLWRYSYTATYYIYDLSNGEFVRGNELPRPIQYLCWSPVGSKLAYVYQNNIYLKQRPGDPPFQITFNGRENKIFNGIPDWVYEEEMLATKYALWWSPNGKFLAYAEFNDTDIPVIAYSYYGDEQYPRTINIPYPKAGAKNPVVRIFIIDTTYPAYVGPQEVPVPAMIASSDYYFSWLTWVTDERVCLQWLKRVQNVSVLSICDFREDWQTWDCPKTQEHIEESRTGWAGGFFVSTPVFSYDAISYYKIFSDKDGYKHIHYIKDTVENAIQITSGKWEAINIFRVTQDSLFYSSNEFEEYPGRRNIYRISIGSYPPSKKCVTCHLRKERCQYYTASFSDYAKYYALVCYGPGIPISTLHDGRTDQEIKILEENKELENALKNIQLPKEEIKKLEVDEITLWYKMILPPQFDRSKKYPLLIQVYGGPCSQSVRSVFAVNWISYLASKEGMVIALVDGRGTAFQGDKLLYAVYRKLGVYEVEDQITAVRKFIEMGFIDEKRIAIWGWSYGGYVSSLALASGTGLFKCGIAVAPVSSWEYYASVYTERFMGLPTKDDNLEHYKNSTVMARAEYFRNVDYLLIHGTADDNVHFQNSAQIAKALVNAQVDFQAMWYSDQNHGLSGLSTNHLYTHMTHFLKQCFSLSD

Row | Substance | pIC50 Category (FACS) [1] [pIC50] | pIC50 Category (Activity) [2] [pIC50]
1 | Ac-Met-[Cys(3MeBn)-Gly-Pro-Thr-Glu-Phe-Cys]-Asp-His-Phe-Arg-Asp-NH2 (peptide) | > 8 | > 8
2 | Ac-Met-[Cys(3MeBn)-Pro-Pro-Thr-Glu-Phe-Cys]-Asp-Ala-Phe-Arg-Asp-NH2 (peptide) | > 8 | –
3 | Ac-Met-[Cys(3MeBn)-Pro-Pro-Thr-Glu-Phe-Cys]-Asp-His-Aic-Arg-Asp-NH2 (peptide) | > 8 | > 8
4 | Ac-Met-[Cys(3MeBn)-Pro-Pro-Thr-Glu-Phe-Cys]-Asp-His-Ala-Arg-Asp-NH2 (peptide) | > 8 | > 8
5 | Ac-Met-[Cys(3MeBn)-Pro-Pro-Thr-Glu-Phe-Cys]-Asp-His-Amf-Arg-Asp-NH2 (peptide) | > 8 | > 8
6 | Ac-Met-[Cys(3MeBn)-Pro-Pro-Thr-Glu-Phe-Cys]-Asp-His-Mpa-Arg-Asp-NH2 (peptide) | > 8 | > 8
7 | Ac-Met-[Cys(3MeBn)-Pro-Pro-Thr-Glu-Phe-Cys]-Asp-His-Nmf-Arg-Asp-NH2 (peptide) | > 8 | > 8
8 | Ac-Met-[Cys(3MeBn)-Pro-Pro-Thr-Glu-Phe-Cys]-Asp-His-Phe-Arg-Ala-NH2 (peptide) | > 8 | > 8
9 | Ac-Met-[Cys(3MeBn)-Pro-Pro-Thr-Glu-Phe-Cys]-Asp-His-Phe-Arg-Asp-NH2 (peptide) | > 8 | > 8
10 | Ac-Met-[Cys(3MeBn)-Pro-Pro-Thr-Glu-Phe-Cys]-Asp-His-Phe-Arg-NH2 (peptide) | > 8 | > 8
11 | Ac-Met-[Cys(3MeBn)-Pro-Pro-Thr-Glu-Phe-Cys]-Asp-His-Phe-Arg-asp-NH2 (peptide) | > 8 | > 8
12 | Ac-Met-[Cys(3MeBn)-Pro-Pro-Thr-Glu-Phe-Cys]-Asp-His-Phe-arg-Asp-NH2 (peptide) | > 8 | > 8
13 | Ac-Met-[Cys(3MeBn)-Pro-Pro-Thr-Glu-Phe-Cys]-Asp-His-Ppa-Arg-Asp-NH2 (peptide) | > 8 | > 8
14 | Ac-Met-[Cys(3MeBn)-Pro-Pro-Thr-Glu-Phe-Cys]-Asp-His-Tic-Arg-Asp-NH2 (peptide) | > 8 | > 8
15 | Ac-Met-[Cys(3MeBn)-Pro-Pro-Thr-Glu-Phe-Cys]-Asp-His-phe-Arg-Asp-NH2 (peptide) | > 8 | > 8
16 | Ac-Met-[Cys(3MeBn)-Pro-Pro-Thr-Glu-Phe-Cys]-Asp-his-Phe-Arg-Asp-NH2 (peptide) | > 8 | > 8
17 | Ac-Met-[Cys(3MeBn)-Pro-Pro-Thr-Glu-Thi-Cys]-Asp-His-Phe-Arg-Asp-NH2 (peptide) | > 8 | > 8
18 | Ac-Met-[cys(3MeBn)-Pro-Pro-Thr-Glu-Phe-Cys]-Asp-His-Phe-Arg-Asp-NH2 (peptide) | > 8 | > 8
19 | Ac-met-[Cys(3MeBn)-Pro-Pro-Thr-Glu-Phe-Cys]-Asp-His-Phe-Arg-Asp-NH2 (peptide) | > 8 | > 8
20 | DOTA-Ttds-Nle-[Cys(3MeBn)-Pro-Pro-Thr-Glu-Phe-Cys]-Asp-NH2 (peptide) | – | > 8
21 | Hex-[Cys(3MeBn)-Pro-Pro-Ala-Glu-Phe-Cys]-NH2 (peptide) | – | < 6
22 | Hex-[Cys(3MeBn)-Pro-Pro-Thr-Ala-Phe-Cys]-NH2 (peptide) | – | < 6
23 | Hex-[Cys(3MeBn)-Pro-Pro-Thr-Gln-Otf-Cys]-NH2 (peptide) | – | > 8
24 | Hex-[Cys(3MeBn)-Pro-Pro-Thr-Glu-Phe-Cys]-Bal-OH (peptide) | > 8 | –
25 | Hex-[Cys(3MeBn)-Pro-Pro-Thr-Glu-Phe-Cys]-Pamb-Arg-NH2 (peptide) | – | > 8

Source: US20220315554A1, “COMPOUNDS COMPRISING A […] LIGAND AND USE THEREOF” (priority 2019, published 2022)
